Laboratory results reported in patent US20030148956A1 (PROCTER AND GAMBLE, published 2003).
Ends that are not written are not given here.

T1: corticotropin releasing factor 2 receptor
T1 sequence (Q13324 whole entry, species assumed, looked up): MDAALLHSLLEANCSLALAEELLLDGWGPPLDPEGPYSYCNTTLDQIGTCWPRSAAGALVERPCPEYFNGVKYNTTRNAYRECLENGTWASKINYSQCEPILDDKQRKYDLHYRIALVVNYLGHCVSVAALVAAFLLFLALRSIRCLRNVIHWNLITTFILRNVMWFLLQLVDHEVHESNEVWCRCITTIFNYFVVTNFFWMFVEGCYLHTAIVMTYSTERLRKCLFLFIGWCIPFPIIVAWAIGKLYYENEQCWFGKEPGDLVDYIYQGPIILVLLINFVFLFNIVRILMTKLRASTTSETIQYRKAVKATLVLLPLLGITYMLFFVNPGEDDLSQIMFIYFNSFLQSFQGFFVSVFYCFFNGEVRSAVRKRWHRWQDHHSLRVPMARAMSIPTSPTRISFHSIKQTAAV


Legend:
[1] = molecular target: corticotropin releasing factor 1 receptor; experiment: cell-based or functional assay
[2] = molecular target: T1, corticotropin releasing factor 2 …; experiment: cell-based or functional assay

Binder | CRF1R EC50 [1] [nM] | CRF2R EC50 [2] [nM] | CRF2R Emax % [2] [%] | CRF1R Emax % [1] [%]
ZGPPISIDLPYQLLRKMIEIEKQEKEKQQAANNARLLAR (C-terminal amide) [SEQ ID NO 287] | 1000 | 11.3 | 100 | 
ZGPPISIDLPYQLLRKMIEIEKQEKEKQQAANNARLLAR (C-terminal amide) [SEQ ID NO 288] | 838 | 14.7 | 100 | 
ZGPPISIDLPFQLLRKVIEIEKQEKEKQQAANNANLLANI (C-terminal amide) [SEQ ID NO 275] | 1000 | 46.6 | 100 | 38.3
ZGPPISIDLPQILLRKMIEIEKQEKEKQQAANNARLLARI (C-terminal amide) [SEQ ID NO 285] | 1000 | 13.9 | 97.1 | 11.1
ZGPPISIDLPIFLLRKMIEIEKQEKEKQQAANNARLLARI (C-terminal amide) [SEQ ID NO 282] | 1000 | 25.8 | 60.8 | 21.8
ZGPPISIDLPIILLRKMIEIEKQEKEKQQAANNARLLARI (C-terminal amide) [SEQ ID NO 290] | 1000 | 100 | 100 | 6.4
ZGPPISIDLPYWLLRKMIEIEKQEKEKQQAANNARLLARI (C-terminal amide) [SEQ ID NO 289] | 1000 | 12.2 | 97.3 | 69.5
ZGPPISIDLPYQLLRKVIEIEKQEKEKQQAANNRLLLDTI (C-terminal amide) [SEQ ID NO 283] | 635 | 10.6 | 72 | 100
ZGPPISIDLPIFLLRKVIEIEKQEKEKQQAANNARLLARI (C-terminal amide) [SEQ ID NO 281] | 1000 | 100 | 78.8 | 12.2
ZGPPISIDLPFQLLRKVIEIEKQEKEKQQAANNAHLLAHI (C-terminal amide) [SEQ ID NO 277] | 1000 | 28.2 | 100 | 39.9
ZGPPISIDLPIFLLRKVIEIEKQEKEKQQAANNALLLATI (C-terminal amide) [SEQ ID NO 280] | 1000 | 100 | 82.3 | 11.8
ZGPPISIDLPFQLLRKVIEIEKQEKEKQQAANNAQLLAQI (C-terminal amide) [SEQ ID NO 276] | 1000 | 22.1 | 100 | 75.7
ZGPPISIDLPFQLLRKVIEIEKQEKEKQQAANNARLLDTI (C-terminal amide) [SEQ ID NO 278] | 1000 | 19.6 | 100 | 48.7
ZGPPISIDLPYQLLRKVIEIEKQEKEKQQAANNARLLARI (C-terminal amide) [SEQ ID NO 286] | 1000 | 13.5 | 92.5 | 19.2
ZGPPISIDLPFQLLRKVIEIEKQEKEKQQAANNARLLARI (C-terminal amide) [SEQ ID NO 279] | 1000 | 13.1 | 100 | 93
ZGPPISIDLPTWLLRKVIEIEKQEKEKQQAANNRLLLDTI (C-terminal amide) [SEQ ID NO 284] | 1000 | 100 | 100 | 27.7

Further lines, results first:

CRF1R EC50 [1] [nM] | CRF2R EC50 [2] [nM] | CRF2R Emax % [2] [%] | CRF1R Emax % [1] [%] | Binder
1000 | 17.1 | 100 | 7.95 | IVLSLDVPIGLLQKVIEIEKQEKEKQQATTNARILARV-NH2 [SEQ ID NO 300]
1000 | 100 | 86.1 | 7 | ZGPPISIDLPTWLLRKMIEIEKQEKEKQQAANNARLLARI (C-terminal amide) [SEQ ID NO 292]
1000 | 100 | 63.8 | 4.75 | ZGPPISIDLPTWLLRKVIEIEKQEKEKQQAANNARLLARI (C-terminal amide) [SEQ ID NO 291]
1000 | 46.4 | 71.5 | 10.2 | ZGPPISIDLPQILLRKVIEIEKQEKEKQQAANNALLLATI (C-terminal amide) [SEQ ID NO 299]
1000 | 100 | 100 | 13.6 | ZGPPISIDLPQILLRKVIEIEKQEKEKQQAANNARLLARI (C-terminal amide) [SEQ ID NO 294]
1000 | 82 | 98.8 | 20.1 | ZGPPISIDLPIFLLRKMIEIEKQEKEKQQAANNALLLATI (C-terminal amide) [SEQ ID NO 298]
1000 | 55 | 67.6 | 5.3 | ZGPPISIDLPIILLRKVIEIEKQEKEKQQAANNARLLARI (C-terminal amide) [SEQ ID NO 295]
1000 | 11.7 | 100 | 29.7 | ZGPPISIDLPYWLLRKVIEIEKQEKEKQQAANNALLLDTI (C-terminal amide) [SEQ ID NO 311]
100 | 6.66 | 65 | 4 | HHHHHHIVLSLDVPIGLLQILLEQARARAAREQATTNARILARN-NH2 [SEQ ID NO 296]
582 | 27.2 | 100 | 100 | ZGPPISIDLPAALLRKMIEIEKQEKEKQQAANNRLLLDTI (not fully specified; C-terminal amide) [SEQ ID NO 303]
78.4 | 5.82 | 96.5 | 92.7 | ZGPPISIDLPFALLRKMIEIEKQEKEKQQAANNRLLLDTI (not fully specified; C-terminal amide) [SEQ ID NO 307]
1000 | 8.7 | 87.5 | 45.3 | ZGPPISIDLPYWLLRKMIEIEKQEKEKQQAANNALLLDTI (C-terminal amide) [SEQ ID NO 310]
1000 | 35.5 | 95.2 | 59.5 | ZGPPISIDLPVALLRKMIEIEKQEKEKQQAANNRLLLDTI (not fully specified; C-terminal amide) [SEQ ID NO 305]
108 | 5.55 | 99.9 | 96.3 | ZGPPISIDLPYALLRKMIEIEKQEKEKQQAANNRLLLDTI (not fully specified; C-terminal amide) [SEQ ID NO 309]
608 | 27.6 | 100 | 97.7 | ZGPPISIDLPIALLRKMIEIEKQEKEKQQAANNRLLLDTI (not fully specified; C-terminal amide) [SEQ ID NO 306]
690 | 50.5 | 88.4 | 84.1 | ZGPPISIDLPTALLRKMIEIEKQEKEKQQAANNRLLLDTI (not fully specified; C-terminal amide) [SEQ ID NO 301]
1000 | 100 | 88.3 | 27.2 | ZGPPISIDLPIILLRKVIEIEKQEKEKQQAANNRLLLDTI (C-terminal amide) [SEQ ID NO 297]
116 | 19.3 | 92.5 | 100 | ZGPPISIDLPHALLRKMIEIEKQEKEKQQAANNRLLLDTI (not fully specified; C-terminal amide) [SEQ ID NO 304]
520 | 40.3 | 87 | 95.3 | ZGPPISIDLPQILLRKVIEIEKQEKEKQQAANNRLLLDTI (C-terminal amide) [SEQ ID NO 293]
63.5 | 3.3 | 72.8 | 100 | ZGPPISIDLPLALLRKMIEIEKQEKEKQQAANNRLLLDTI (not fully specified; C-terminal amide) [SEQ ID NO 308]
366 | 36.2 | 100 | 100 | ZGPPISIDLPQALLRKMIEIEKQEKEKQQAANNRLLLDTI (not fully specified; C-terminal amide) [SEQ ID NO 302]
